Laboratory results: article PMC7700585, “Mechanistic Insights into the Allosteric Regulation of the Clr4 Protein Lysine Methyltransferase by Autoinhibition and Automethylation” (International Journal of Molecular Sciences, 2020)

Experiments:
Clr4 WT [1] = target: T1, Clr4 WT (Schizosaccharomyces pombe, UniProt O60016); experiment: AdoMet dependence of Clr4 WT activity (MALDI-TOF); type: biochemical; conditions: 30 °C, Hill model
T1 construct: The plasmid encoding for SUMO- and His-tagged full-length Clr4 WT and different mutant variants were transformed into E. coli; SUMO; His; made in house; host or cells: E. coli BL21-CodonPlus (DE3)
T1 sequence (O60016 whole entry): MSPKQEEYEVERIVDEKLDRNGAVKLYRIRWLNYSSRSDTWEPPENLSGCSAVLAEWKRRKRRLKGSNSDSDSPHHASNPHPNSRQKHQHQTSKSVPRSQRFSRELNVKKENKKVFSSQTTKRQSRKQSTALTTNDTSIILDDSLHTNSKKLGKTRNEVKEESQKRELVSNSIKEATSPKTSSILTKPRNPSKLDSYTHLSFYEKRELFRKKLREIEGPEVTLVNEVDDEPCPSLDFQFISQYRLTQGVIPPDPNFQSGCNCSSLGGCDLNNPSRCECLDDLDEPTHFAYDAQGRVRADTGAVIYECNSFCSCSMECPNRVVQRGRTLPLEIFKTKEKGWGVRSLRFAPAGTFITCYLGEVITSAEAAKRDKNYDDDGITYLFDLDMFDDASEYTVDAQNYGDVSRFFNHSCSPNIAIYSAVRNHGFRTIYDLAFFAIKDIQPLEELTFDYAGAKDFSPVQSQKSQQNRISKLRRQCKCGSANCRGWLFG
Protocol: (§1) To investigate the Clr4 AdoMet dependency and the role that could be played by ARL automethylation in sensing AdoMet concentrations, steady-state kinetics were conducted at variable AdoMet concentrations. […] Afterwards, the methylation products were detected by MALDI-TOF mass spectrometry (Supplementary Figure S5). The Clr4 reaction rates were derived from the analysis of relative peak intensities of the different methylated histone peptides (Figure 6A,B).
(§2) Figure 6 AdoMet dependence of the activity of Clr4 WT and the K455R/K472R mutant. Fractions of methylated products observed with increasing AdoMet concentrations (2–50 µM) for Clr4 WT (A) or the automethylation-deficient K455R/K472R mutant (B). Data were obtained from the analysis of corresponding relative peak intensities measured by MALDI-TOF mass spectrometry in two to four independent experiments (see Supplementary Figure S5).
The reactions were halted by the addition of 0.1% trifluoroacetic acid (TFA). […] After that, the dried spots on the anchor plate were analyzed using an Autoflex Speed MALDI-TOF mass spectrometer (Bruker-Daltonics, Billerica, MA, USA). […] The collected spectra were then analyzed with Flex analysis software (Bruker Daltonics). The relative methylation levels were determined by using the corresponding peak intensities of the substrate peptide in different methylation states.

Clr4 K455R/K472R = Clr4 K455R/K472R (Schizosaccharomyces pombe, UniProt O60016, K455R/K472R); experiment: AdoMet dependence of Clr4 K455R/K472R activity (MALDI-TOF); type: biochemical
Sequence of Clr4 K455R/K472R (O60016 whole entry K455R/K472R): as the sequence (O60016 whole entry) above, with K455R, K472R counted along it
Protocol: as §1, §2
(§3) The reactions were halted by the addition of 0.1% trifluoroacetic acid (TFA). All the samples were cleaned using C18 tips (Agilent Technologies, Santa Clara, CA, USA). The eluted samples were spotted on an anchor chip plate and allowed to dry completely. Later, 1 μL of HCCA matrix (0.7 mg/mL α-cyano-4 hydroxycinnamic acid dissolved in 85% acetonitrile, 0.1% TFA, 1 mM ammonium dihydrogen phosphate) was added to dried sample and allowed to dry again. After that, the dried spots on the anchor plate were analyzed using an Autoflex Speed MALDI-TOF mass spectrometer (Bruker-Daltonics, Billerica, MA, USA). The mass spectra were collected using the Flex control software (Bruker-Daltonics). For calibration, the peptide calibration standard (Bruker-Daltonics) with peptides ranging from 700 to 3200 Da was used. The collected spectra were then analyzed with Flex analysis software (Bruker Daltonics). The relative methylation levels were determined by using the corresponding peak intensities of the substrate peptide in different methylation states.

Clr4 WT [2] = target: T1, Clr4 WT; experiment: MALDI-TOF detection of Clr4 WT methylation of histone peptides; type: biochemical; conditions: 4.5 µM peptide, 1 mM unlabeled AdoMet
Protocol: as §3

Clr4 = experiment: Radioactive in vitro automethylation of Clr4 WT and ARL variants (autoradiography); type: biochemical, Schizosaccharomyces pombe; conditions: for Automethylation level (relative value): relative to WT, mean ± S.D., two to four independent experiments, results with and without peptide combined, 0.45 µM Clr4, 2.4 µM H3K9me0 peptide, 0.76 µM [methyl-3H]-AdoMet, 50 mM Tris pH 8.8, 3 h, 30 °C; for change in automethylation, in words: compared to WT (triple mutant: compared to A454R); for decrease in automethylation compared to the WT enzyme (fold): autoradiography, normalized to WT
Source text: (§4) After the methylation reactions, the samples were separated by gel electrophoresis and the transfer of the radioactively labeled methyl groups from the cofactor to the respective target lysine residues in Clr4 and in the H3K9 peptide was visualized by autoradiography, analyzed quantitatively and normalized to WT (Figure 2 and Supplementary Table S1).
(§5) Figure 2 Methyltransferase activity and automethylation of different engineered Clr4 variants compared to wild type (WT). […] The red asterisks indicate the Clr4 automethylation signal. […] The mean values are indicated by the bars and the individual data points as circles. […] The p-values of the differences in automethylation and methyltransferase activities between WT and mutants are listed in Supplementary Table S1.
(§6) The reactions were stopped by the addition of Tricine-SDS-PAGE loading buffer followed by heating to 95 °C for 5 min. […] The signals of the transferred radioactively labeled methyl groups were detected by autoradiography using a Hyperfilm^TM high-performance autoradiography film (Merck), which was placed on the dried gels at −80 °C in the dark. Films were developed with an Optimax Typ TR machine after different exposure times. For quantification, the signal intensities were measured with ImageJ (https://imagej.nih.gov/ij/) and analyzed with Microsoft Excel (Microsoft, Redmond, WA, USA).

Clr4 A454R = target: T2, Clr4 A454R (Schizosaccharomyces pombe, UniProt O60016, A454R); type: biochemical
T2 construct: The plasmid encoding for SUMO- and His-tagged full-length Clr4 WT and different mutant variants were transformed into E. coli; SUMO; His; made in house; host or cells: E. coli BL21-CodonPlus (DE3)
T2 sequence (O60016 whole entry A454R): as the sequence (O60016 whole entry) above, with A454R counted along it
Protocol: A reaction of WT enzyme incubated with 400 µM peptide was loaded on each gel as reference for the quantitative analysis.
The methylation reactions were performed using a peptide concentration range (25–400 µM) in methylation buffer (50 mM Tris pH 8.8, 10 mM MgCl2, 20 mM KCl, 1 mM DTT) supplemented with 0.76 µM radioactively labeled AdoMet (PerkinElmer) and 0.3 µM Clr4 WT or variants for 1 h at 30 °C.

[3] = test system: unmodified H3K9 peptide (H3K9me0); experiment: Radioactive in vitro methyltransferase activity of Clr4 variants on H3K9 peptide; type: biochemical; conditions: for change in methyltransferase activity on the H3K9 peptide, in words: compared to WT (triple mutant: compared to A454R), low AdoMet (0.76 µM); for Methyltransferase activity (relative value): relative to WT, mean ± S.D., two to four independent experiments, 0.45 µM Clr4, 2.4 µM H3K9me0 (1–19) peptide, 0.76 µM [methyl-3H]-AdoMet, 50 mM Tris pH 8.8, 3 h, 30 °C
Source text: as §4, §5, §6

[4] = test system: C[S+](CC[C@H](N)C(=O)[O-])C[C@H]1O[C@@H](n2cnc3c(N)ncnc32)[C@H](O)[C@@H]1O; experiment: AdoMet dependence of Clr4 K455R/K472R activity (MALDI-TOF); type: biochemical, Schizosaccharomyces pombe; conditions: other: Clr4 K455R/K472R 0.9 µM, H3K9me1 peptide 4.58 µM, AdoMet 0–50 µM, 50 mM Tris pH 8.8, 3 h, 30 °C, Michaelis–Menten model, mean ± SEM, two to four independent experiments
Protocol: as §1, §2, §3

[5] = target: Clr4 A454R mutant, SUMO- and His-tagged full-length (S. pombe, UniProt O60016 1-490, A454R); experiment: cell-based or functional assay
[6] = target: Clr4 wild type, SUMO- and His-tagged full-length (S. pombe, UniProt O60016 1-490); experiment: cell-based or functional assay

C[S+](CC[C@H](N)C(=O)[O-])C[C@H]1O[C@@H](n2cnc3c(N)ncnc32)[C@H](O)[C@@H]1O (stereo partly drawn) [AdoMet, S-adenosyl-L-methionine]
N (Hill coefficient), Clr4 WT (Clr4 WT [1]; Clr4 WT 0.9 µM, H3K9me1 peptide 4.58 µM, AdoMet 0–50 µM, pH 8.8, 3 h, mean ± SEM): 1.87 ± 0.19 | n, Clr4 K455R/K472R (Clr4 K455R/K472R; mutant data were fitted to the Michaelis–Menten model corresponding to an n-value of 1 (not a free parameter)): 1 | rel. vmax (AdoMet), Clr4 K455R/K472R (Clr4 K455R/K472R; relative to WT activity, Clr4 K455R/K472R 0.9 µM, H3K9me1 peptide 4.58 µM, AdoMet 0–50 µM, pH 8.8, 3 h, 30 °C, Michaelis–Menten model, mean ± SEM): 0.71 ± 0.08

C[C@H](N)C(=O)N[C@@H](CCCNC(=N)N)C(=O)N[C@H](C(=O)N[C@@H](CCCCN)C(=O)N[C@@H](CCC(N)=O)C(=O)N[C@H](C(=O)N[C@@H](C)C(=O)N[C@@H](CCCNC(=N)N)C(=O)N[C@@H](CCCCN)C(=O)N[C@@H](CO)C(=O)N[C@H](C(=O)NCC(=O)NCC(=O)N[C@@H](CCCCN)C(=O)N[C@@H](C)C(=O)N1CCC[C@H]1C(=O)N[C@@H](CCCNC(=N)N)C(=O)N[C@@H](CCCCN)C(=O)N[C@@H](CCC(N)=O)C(N)=O)[C@@H](C)O)[C@@H](C)O)[C@@H](C)O [H3K9me0]
H3K9me1 product fraction after overnight incubation (Clr4 WT [2]): 12% | H3K9me2 product fraction after overnight incubation (Clr4 WT [2]): 42% | total methylation after overnight incubation (Clr4 WT [2]): 54%

A454R: Clr4 variant, A454 in the ARL was mutated to R
stronger automethylation compared to Clr4 WT (fold) (Clr4; p-value = 0.012): about 3.4 fold | Automethylation level (relative value) (Clr4): 3.4 ± 1.05 | activity at low concentrations of both histone peptides (Clr4 A454R; A454R compared to WT, H3K9me0 and H3K9me1, Figure S4): higher activity compared to the WT | Vmax difference A454R vs WT (Clr4 A454R; histone peptides, AdoMet 0.76 µM): minor | change in methyltransferase activity on the H3K9 peptide, in words [3]: approximately two-fold higher methyltransferase activity | Methyltransferase activity (relative value) [3]: 1.9 ± 0.33

Clr4 K455R/K472R (Schizosaccharomyces pombe 972h-; K455R/K472R)
Km [4]: 13.6 ± 1.0 µM

Clr4 WT: S. pombe H3K9 protein lysine methyltransferase Clr4, wild type
reaction rate response towards increasing AdoMet concentration, Clr4 WT (Clr4 WT [1]; AdoMet 2–50 µM, H3K9me1 peptide, 3 h): sigmoidal response

D456S/F457T: Clr4 variant, D456 and F457 were mutated to S and T
change in automethylation, in words (Clr4): no significant change in automethylation | Automethylation level (relative value) (Clr4): 1.2 ± 0.33 | change in methyltransferase activity on the H3K9 peptide, in words [3]: no significant change in automethylation and methyltransferase activity | Methyltransferase activity (relative value) [3]: 1.2 ± 0.14

K455M: Clr4 variant in which the target lysine in the ARL, K455, was mutated to M
change in automethylation, in words (Clr4): strong reduction in automethylation (about four-fold | Automethylation level (relative value) (Clr4): 0.23 ± 0.05 | reduction in H3K9 peptide methyltransferase activity ([3]; less active than WT, p-value = 0.0004): 30% | Methyltransferase activity (relative value) [3]: 0.7 ± 0.09

K455R/K472R: ARL automethylation-deficient Clr4 mutant
reaction rate response towards increasing AdoMet concentration, K455R/K472R (Clr4 K455R/K472R; AdoMet 2–50 µM, H3K9me1 peptide, 3 h, 30 °C, Michaelis–Menten model): regular hyperbolic shape | decrease in automethylation compared to the WT enzyme (fold) (Clr4): ~2.2 fold | Automethylation level (relative value) (Clr4): 0.46 ± 0.15 | change in methyltransferase activity on the H3K9 peptide, in words [3]: not accompanied by a corresponding reduction in activity | Methyltransferase activity (relative value) [3]: 0.91 ± 0.08

K455R: automethylation-deficient Clr4 mutant
decrease in automethylation compared to the WT enzyme (fold) (Clr4): about 1.4 fold | Automethylation level (relative value) (Clr4): 0.7 ± 0.08 | change in methyltransferase activity on the H3K9 peptide, in words [3]: not accompanied by a corresponding reduction in activity | Methyltransferase activity (relative value) [3]: 1.1 ± 0.008

ARTKQTARKSTGGKAPRK (peptide, UniProt P68431 2-19, looked up, monomethyl-lysine at 9; biotin (end not stated)) [H3K9me1-biotin (1–18) peptide]
Km of peptide methylation (steady-state kinetics, Michaelis–Menten fit, 0.76 µM AdoMet) [5]: 5.5 µM | Km of peptide methylation (steady-state kinetics, Michaelis–Menten fit, 0.76 µM AdoMet) [6]: 16.4 µM

B1: A454R/D456S/F457T: Clr4 triple mutant, all of the exchanges combined in one mutant (protein, UniProt O60016 1-490, looked up, variant A454R D456S F457T)
Histone-lysine …: MSPKQEEYEVERIVDEKLDRNGAVKLYRIRWLNYSSRSDTWEPPENLSGCSAVLAEWKRRKRRLKGSNSDSDSPHHASNPHPNSRQKHQHQTSKSVPRSQRFSRELNVKKENKKVFSSQTTKRQSRKQSTALTTNDTSIILDDSLHTNSKKLGKTRNEVKEESQKRELVSNSIKEATSPKTSSILTKPRNPSKLDSYTHLSFYEKRELFRKKLREIEGPEVTLVNEVDDEPCPSLDFQFISQYRLTQGVIPPDPNFQSGCNCSSLGGCDLNNPSRCECLDDLDEPTHFAYDAQGRVRADTGAVIYECNSFCSCSMECPNRVVQRGRTLPLEIFKTKEKGWGVRSLRFAPAGTFITCYLGEVITSAEAAKRDKNYDDDGITYLFDLDMFDDASEYTVDAQNYGDVSRFFNHSCSPNIAIYSAVRNHGFRTIYDLAFFAIKDIQPLEELTFDYAGRKSTSPVQSQKSQQNRISKLRRQCKCGSANCRGWLFG
change in automethylation, in words (Clr4): no significant difference from the A454R single mutant | Automethylation level (relative value) (Clr4): 2.7 ± 0.66 | change in methyltransferase activity on the H3K9 peptide, in words [3]: no significant difference from the A454R single mutant | Methyltransferase activity (relative value) [3]: 1.7 ± 0.02
